Assay results as given in US20250242041A1 (Seagen, published 2025).

T1: human αvβ6 on 293F:huβ6 cells (human, UniProt P06756 31-1048; P18564 22-788)
T1 chain 1: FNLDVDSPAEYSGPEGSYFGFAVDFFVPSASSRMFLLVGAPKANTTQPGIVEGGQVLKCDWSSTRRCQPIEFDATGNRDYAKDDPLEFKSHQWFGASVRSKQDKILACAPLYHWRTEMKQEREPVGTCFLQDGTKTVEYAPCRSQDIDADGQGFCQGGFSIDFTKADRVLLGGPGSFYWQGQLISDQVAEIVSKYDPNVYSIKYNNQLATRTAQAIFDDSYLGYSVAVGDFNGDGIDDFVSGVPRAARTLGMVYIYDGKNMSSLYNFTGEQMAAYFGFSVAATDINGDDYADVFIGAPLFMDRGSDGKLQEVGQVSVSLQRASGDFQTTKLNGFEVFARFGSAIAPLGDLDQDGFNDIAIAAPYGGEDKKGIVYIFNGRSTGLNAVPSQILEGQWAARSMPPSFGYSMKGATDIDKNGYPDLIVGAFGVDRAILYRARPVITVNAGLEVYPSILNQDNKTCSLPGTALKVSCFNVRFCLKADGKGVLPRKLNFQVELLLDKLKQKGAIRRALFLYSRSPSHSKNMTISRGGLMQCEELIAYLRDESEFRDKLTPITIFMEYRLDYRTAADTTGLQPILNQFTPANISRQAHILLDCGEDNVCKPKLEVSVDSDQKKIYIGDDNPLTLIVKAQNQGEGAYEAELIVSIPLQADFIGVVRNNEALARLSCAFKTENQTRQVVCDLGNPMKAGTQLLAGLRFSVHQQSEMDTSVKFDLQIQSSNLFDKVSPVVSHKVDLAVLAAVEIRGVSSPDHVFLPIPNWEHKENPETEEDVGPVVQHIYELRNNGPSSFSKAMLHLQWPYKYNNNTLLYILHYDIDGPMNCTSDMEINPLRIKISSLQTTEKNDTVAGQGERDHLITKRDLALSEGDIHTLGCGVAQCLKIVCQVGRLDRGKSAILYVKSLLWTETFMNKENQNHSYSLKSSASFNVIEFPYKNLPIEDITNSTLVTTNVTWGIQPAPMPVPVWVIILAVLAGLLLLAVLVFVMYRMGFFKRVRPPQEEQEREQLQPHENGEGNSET
T1 chain 2: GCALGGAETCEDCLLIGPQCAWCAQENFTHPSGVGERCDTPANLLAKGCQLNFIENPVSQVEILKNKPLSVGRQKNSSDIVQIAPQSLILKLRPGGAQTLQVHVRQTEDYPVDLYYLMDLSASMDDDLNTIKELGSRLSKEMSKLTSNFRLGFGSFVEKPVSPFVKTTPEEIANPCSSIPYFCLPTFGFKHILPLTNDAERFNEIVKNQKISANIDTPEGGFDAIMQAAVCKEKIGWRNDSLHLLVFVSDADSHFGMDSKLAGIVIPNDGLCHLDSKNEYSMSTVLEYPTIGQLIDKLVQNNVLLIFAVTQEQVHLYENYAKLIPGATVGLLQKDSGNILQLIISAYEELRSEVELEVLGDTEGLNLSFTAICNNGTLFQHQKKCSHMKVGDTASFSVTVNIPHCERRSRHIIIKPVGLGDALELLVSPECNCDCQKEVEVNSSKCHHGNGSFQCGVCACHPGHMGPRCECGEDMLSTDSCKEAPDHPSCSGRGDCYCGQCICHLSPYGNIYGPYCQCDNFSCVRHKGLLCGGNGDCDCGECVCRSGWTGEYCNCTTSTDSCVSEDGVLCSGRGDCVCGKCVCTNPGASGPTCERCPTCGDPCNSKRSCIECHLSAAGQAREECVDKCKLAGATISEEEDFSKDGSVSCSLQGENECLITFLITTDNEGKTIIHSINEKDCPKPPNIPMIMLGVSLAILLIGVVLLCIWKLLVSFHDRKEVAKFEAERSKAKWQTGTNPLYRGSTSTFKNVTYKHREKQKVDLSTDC

T2: cyno αvβ6 on 293F:cynoβ6 cells (human;Macaca fascicularis, UniProt P06756 31-1048; A0A2K5TZ36 22-787)
T2 chain 1: T1 chain 1
T2 chain 2: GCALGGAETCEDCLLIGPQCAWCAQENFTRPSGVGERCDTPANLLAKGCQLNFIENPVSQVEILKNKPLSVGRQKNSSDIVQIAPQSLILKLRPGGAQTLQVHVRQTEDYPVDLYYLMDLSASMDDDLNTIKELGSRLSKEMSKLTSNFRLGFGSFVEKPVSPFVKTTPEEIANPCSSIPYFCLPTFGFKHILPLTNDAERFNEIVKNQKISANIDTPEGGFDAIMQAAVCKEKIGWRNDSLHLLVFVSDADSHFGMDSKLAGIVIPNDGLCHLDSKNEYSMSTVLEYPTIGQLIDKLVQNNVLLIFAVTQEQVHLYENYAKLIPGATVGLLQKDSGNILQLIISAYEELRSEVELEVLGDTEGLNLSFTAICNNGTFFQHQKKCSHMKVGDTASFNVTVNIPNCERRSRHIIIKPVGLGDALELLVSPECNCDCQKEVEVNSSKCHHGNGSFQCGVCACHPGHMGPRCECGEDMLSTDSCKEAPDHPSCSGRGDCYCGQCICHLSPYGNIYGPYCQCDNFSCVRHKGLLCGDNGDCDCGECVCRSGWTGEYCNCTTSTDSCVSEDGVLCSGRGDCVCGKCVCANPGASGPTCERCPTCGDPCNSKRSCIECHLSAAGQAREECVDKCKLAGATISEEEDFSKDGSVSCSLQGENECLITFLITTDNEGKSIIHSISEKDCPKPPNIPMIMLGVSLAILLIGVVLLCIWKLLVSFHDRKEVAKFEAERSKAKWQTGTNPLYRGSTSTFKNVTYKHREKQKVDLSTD

B1: murine monoclonal antibody 2A2 (antibody, V domains shown)
VH: EFQLQQSGPELVKPGASVKISCKASGYSFTDYNVNWVKQSNGKSLEWIGVINPKYGTTRYNQKFKGKATLTVDKPSSTAYMQLNSLTSEDSAVYYCTRGLNAWDYWGQGASVTVSS
VL: DIQMTQSPASLSASVGETVTITCGASENIYGALNWYQRKQGKSPQLLIYGATNLADGMSSRFSGSGSGRQYSFKISSLHPDDVATYYCQNVLTTPYTFGGGTKLEIK
notes: Mouse hybridoma IgG; also called m2A2; mouse 2A2
B2: h2A2-Mdpr-PEG(12)-gluc-MMAE(8) (antibody, human IgG1, kappa, V domains shown)
VH: QFQLVQSGAEVKKPGASVKVSCKASGYSFTDYNVNWVRQAPGQGLEWIGVINPKYGTTRYNQKFKGRATLTVDKSTSTAYMELSSLRSEDTAVYYCTRGLNAWDYWGQGTLVTVSS
VL: DIQMTQSPSSLSASVGDRVTITCGASENIYGALNWYQQKPGKAPKLLIYGATNLEDGVPSRFSGSGSGRDYTFTISSLQPEDIATYYCQNVLTTPYTFGQGTKLEIKR
modifications: SGD-5088 drug-linker (Mdpr-PEG(12)-gluc-MMAE) on cysteines of the reduced interchain disulfides, eight copies of drug-linker per antibody
notes: also called ADC prepared with h2A2 HCLG and the SGD-5088 drug-linker; HCLG ADC

How the values were obtained:
[1] = target: T3, human αvβ6 on 293F:huβ6 cells (human, UniProt P06756 31-1048; P18564 22-788); experiment: FMAT and flow cytometry binding studies on cells
T3 construct: whole, on cells; also called HEK293F:huβ6

[2] = target: T4, αvβ5 on the αvβ5-positive parental line (293F:vector) (human, UniProt P06756 31-1048; P18084 24-799); experiment: FMAT and flow cytometry binding studies on cells
T4 construct: whole, on cells; HEK293F cells transfected with the empty vector, used as negative control; also called HEK293F:vector

[3] = target: T1, human αvβ6 on 293F:huβ6 cells; experiment: competition binding on 293F cells; 2nM m2A2-AF647 competitor
[4] = target: T1, human αvβ6 on 293F:huβ6 cells; experiment: saturation binding on 293F cells; AF647-labeled
[5] = target: T2, cyno αvβ6 on 293F:cynoβ6 cells; experiment: saturation binding on 293F cells; AF647-labeled
[6] = target: T1, human αvβ6 on 293F:huβ6 cells; experiment: competition binding on 293F cells; 2nM m2A2-AF647 competitor
[7] = target: T1, human αvβ6 on 293F:huβ6 cells; experiment: as above
[8] = target: T1, human αvβ6 on 293F:huβ6 cells; experiment: saturation binding on 293F cells; AF647-labeled
[9] = target: T2, cyno αvβ6 on 293F:cynoβ6 cells; experiment: saturation binding on 293F cells; AF647-labeled
[10] = target: T3, human αvβ6 on 293F:huβ6 cells; experiment: competition binding by flow cytometry on 293F:huβ6 cells
Method: 0.1×10⁶ antigen expressing cells were aliquoted in each well of a 96-well v-bottom plate on ice. The cells were incubated for 1 hour with 2 nM AlexaFluor-647 labeled humanized 2A2 HCLG and increasing concentrations (from 4 pM-1 uM) of unlabeled humanized 2A2 HCLG antibody and h2A2-Mdpr-PEG(12)-gluc-MMAE(8) in buffer (Tris-buffered saline, 2% fetal bovine serum, 0.5 mM MnCl₂, 0.02% NaN₃). Cells were pelleted and washed 3 times with TBS/FBS. The cells were pelleted and resuspended in 125 uL of TBS/FBS. Fluorescent signal of binding was detected using a Becton Dickinson Biosciences LSR II (San Jose, CA). Percent of saturated fluorescent signal was used to determine percent labeled humanized 2A2 antibody bound to cells and to subsequently extrapolate the EC50 by fitting the data to a sigmoidal dose-response curve with variable slope using GraphPad Software (LaJolla, CA).

[11] = target: T1, human αvβ6 on 293F:huβ6 cells; experiment: competition binding on 293F cells
[12] = target: T2, cyno αvβ6 on 293F:cynoβ6 cells; experiment: competition binding on 293F cells

T4 sequence (P18084 24-799, one chain of several): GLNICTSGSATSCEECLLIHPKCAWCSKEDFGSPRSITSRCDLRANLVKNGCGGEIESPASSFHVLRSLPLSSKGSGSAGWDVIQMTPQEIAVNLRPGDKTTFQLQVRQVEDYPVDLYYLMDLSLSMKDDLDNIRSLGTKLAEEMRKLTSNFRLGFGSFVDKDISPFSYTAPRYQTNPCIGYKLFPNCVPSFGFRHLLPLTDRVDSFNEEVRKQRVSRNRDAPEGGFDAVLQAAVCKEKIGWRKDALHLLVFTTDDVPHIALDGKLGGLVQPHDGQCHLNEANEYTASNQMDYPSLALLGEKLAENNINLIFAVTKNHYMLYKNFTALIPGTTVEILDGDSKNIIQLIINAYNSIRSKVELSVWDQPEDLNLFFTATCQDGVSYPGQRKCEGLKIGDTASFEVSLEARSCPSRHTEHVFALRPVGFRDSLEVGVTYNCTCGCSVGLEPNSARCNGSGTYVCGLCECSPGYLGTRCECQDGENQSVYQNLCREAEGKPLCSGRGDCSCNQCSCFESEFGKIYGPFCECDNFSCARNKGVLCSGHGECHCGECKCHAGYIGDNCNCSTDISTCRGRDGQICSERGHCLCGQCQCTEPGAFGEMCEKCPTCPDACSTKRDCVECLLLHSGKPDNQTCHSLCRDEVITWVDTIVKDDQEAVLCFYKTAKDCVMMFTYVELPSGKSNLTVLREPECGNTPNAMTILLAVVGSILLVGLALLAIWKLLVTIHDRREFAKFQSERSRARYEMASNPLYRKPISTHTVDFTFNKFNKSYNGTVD

Binder | binding result [1] | binding result [2] | EC50 [3] [nM] | EC50 [4] [nM] | EC50 [5] [nM] | EC50 [6] [nM] | EC50 [7] [nM] | EC50 [8] [nM] | EC50 [9] [nM] | binding result [10] | EC50 [11] [nM] | EC50 [12] [nM]
B1 | binds | no binding | 3 | 0.5 | 0.4 | 2 | 3 | 0.5 | 0.4 |  |  | 
B2 |  |  |  |  |  |  |  |  |  | binds | 4 | 4
